The source of these data is article PMC4195687, “Computational and Experimental Characterization of dVHL Establish a Drosophila Model of VHL Syndrome” (PLoS ONE, 2014).

Where no end group is shown, it is not given here. [ ]: non-standard residue; d: D form. Hyp = O=C(O)[C@@H]1C[C@@H](O)CN1

The target in test [1] is T1, human von Hippel-Lindau tumor suppressor protein pVHL (19 kDa) (human, UniProt P40337-3 1-160).
T1 construct: numbers count on: the 30 kDa isoform (Y98, W117 and so on)
Description: ELISA; ELISA-based binding assay: pVHL or dVHL (10 µg/ml, 500 nM, in 10 mM Tris-HCl pH 8, 200 mM NaCl, 200 mM GnHCl) coated on the plate overnight at 4°C, blocked with 5% BSA; TAMRA-labelled peptide at increasing concentrations, 1 h at 25°C; fluorescence at 580 nm, after subtraction of the BSA control. The note with it: both partners purified. A general note: ELISA stands for enzyme-linked immunosorbent assay.

For test [2], the target named is T2, Drosophila von Hippel-Lindau protein dVHL (Drosophila melanogaster, UniProt Q9V3C1 1-178).
T2 construct: Drosophila melanogaster VHL (dVHL), ORF re-engineered to E. coli codon usage, cloned in pET14b (NdeI/XhoI); migrated as a 19 kDa protein; also called Drosophila VHL
T2 sequence (looked up): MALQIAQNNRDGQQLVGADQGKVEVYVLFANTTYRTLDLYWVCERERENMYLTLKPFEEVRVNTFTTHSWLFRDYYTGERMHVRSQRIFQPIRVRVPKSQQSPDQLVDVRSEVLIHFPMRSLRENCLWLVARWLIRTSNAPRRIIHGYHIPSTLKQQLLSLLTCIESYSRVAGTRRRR
Described as above. As to conditions: both partners purified.

T1 sequence (P40337 54-213): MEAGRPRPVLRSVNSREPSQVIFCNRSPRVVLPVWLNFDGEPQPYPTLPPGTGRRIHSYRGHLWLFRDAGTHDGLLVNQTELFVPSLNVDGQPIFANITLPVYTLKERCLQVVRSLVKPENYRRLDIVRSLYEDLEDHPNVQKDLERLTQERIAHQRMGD

B1: Hyp402-ODD-HIF peptide (HIF1-α residues 395-413, hydroxyproline 402, TAMRA-labelled) (peptide)
peptide: DALTLLA[Hyp]AAGDTIISLDF
modifications: also: TAMRA label, position not given here
notes: human HIF1-α, residues 395-413 of the oxygen dependent degradation domain; also called HIF1-α P402; HIF1-α-derived peptide; source: synthetic peptide (Hy Laboratory Ltd, Israel)
For the molecule B1, in test [1], the “fold stronger binding than to dVHL” value is around 1.5 fold. Also, the binding result in test [2] is “binds”.

B2: Hyp850-ODD-SIMA peptide (SIMA residues 841-857, hydroxyproline 850, TAMRA-labelled) (peptide)
peptide: SFEAFAGRA[Hyp]YIPIDDD
modifications: also: TAMRA label, position not given here
notes: Drosophila SIMA (fly homolog of HIF1-α), residues 841-857 of its ODD; The peptide has two prolines (P850 and P853); by its name the hydroxylated one is P850; also called SIMA-derived peptide; source: synthetic peptide (Hy Laboratory Ltd, Israel)
In the case of B2, the “fold stronger binding than to dVHL” value in test [1] is around 1.5 fold. Also, in test [2], the binding result is reported as “binds”.
